Common to all, as to assay: cryo-EM structure; single-particle cryo-EM of S trimers in situ on PFA-fixed, concentrated virions; C3 symmetry for the 3-closed-RBD maps, focused classification for 1-open-RBD trimers
Experiment [1] has as its target SARS-CoV-2 spike (S) protein of the Alpha variant (B.1.1.7), on virions (SARS-CoV-2).
In experiment [2] the target is SARS-CoV-2 spike (S) protein of the B.1 variant (B.1.238), on virions (SARS-CoV-2).
Experiment [3] addresses SARS-CoV-2 spike (S) protein of the Delta variant (B.1.617.2), on virions (SARS-CoV-2).
Experiment [4] has as its target SARS-CoV-2 spike (S) protein of the Gamma variant (P.1), on virions (SARS-CoV-2).
The target in experiment [5] is SARS-CoV-2 spike (S) protein of the Mu variant (B.1.621), on virions (SARS-CoV-2).

For orientation: stoichiometry N means the number of molecules, sites or subunits per partner or assembly. “SARS-CoV-2 spike (S) protein of the Alpha variant (B.1.1.7), on virions (natural protein)” showed a stoichiometry N in experiment [1] of 3.

As for “SARS-CoV-2 spike (S) protein of the B.1 variant (B.1.238), on virions (natural protein)”, in experiment [2], the stoichiometry N came out at 3.

Turning to “SARS-CoV-2 spike (S) protein of the Delta variant (B.1.617.2), on virions (natural protein)”, in experiment [3], the stoichiometry N worked out at 3.

With “SARS-CoV-2 spike (S) protein of the Gamma variant (P.1), on virions (natural protein)”, in experiment [4], the stoichiometry N was determined as 3.

“SARS-CoV-2 spike (S) protein of the Mu variant (B.1.621), on virions (natural protein)” came in with a stoichiometry N in experiment [5] of 3.

The values above are taken from article PMC11649927.
